Laboratory results: article PMC12053622 (2025)

T1: hMCT1/hBSG (Homo sapiens)
T1 chain 1: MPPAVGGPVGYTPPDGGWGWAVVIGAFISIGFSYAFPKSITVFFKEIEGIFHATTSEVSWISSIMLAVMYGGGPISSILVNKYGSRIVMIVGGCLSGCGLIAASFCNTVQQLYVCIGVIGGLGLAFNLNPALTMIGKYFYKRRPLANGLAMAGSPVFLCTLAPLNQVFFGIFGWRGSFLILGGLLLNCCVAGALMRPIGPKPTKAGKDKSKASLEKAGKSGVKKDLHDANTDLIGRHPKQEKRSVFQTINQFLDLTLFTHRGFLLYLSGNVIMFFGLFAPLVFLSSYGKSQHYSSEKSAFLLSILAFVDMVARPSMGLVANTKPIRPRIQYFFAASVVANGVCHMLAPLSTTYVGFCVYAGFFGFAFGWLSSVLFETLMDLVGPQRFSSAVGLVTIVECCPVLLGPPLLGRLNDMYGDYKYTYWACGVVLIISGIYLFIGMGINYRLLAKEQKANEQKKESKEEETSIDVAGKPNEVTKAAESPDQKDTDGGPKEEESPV
T1 chain 2: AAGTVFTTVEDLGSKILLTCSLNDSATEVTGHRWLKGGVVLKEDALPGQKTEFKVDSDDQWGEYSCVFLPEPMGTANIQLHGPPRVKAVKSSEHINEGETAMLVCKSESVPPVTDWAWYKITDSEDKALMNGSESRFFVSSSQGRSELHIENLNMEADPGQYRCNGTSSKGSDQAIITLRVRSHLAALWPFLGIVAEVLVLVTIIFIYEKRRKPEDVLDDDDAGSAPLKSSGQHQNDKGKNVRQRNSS

T2: WT mMCT1/mBSG complex (mouse, UniProt P53986 1-493)
T2 chain 1: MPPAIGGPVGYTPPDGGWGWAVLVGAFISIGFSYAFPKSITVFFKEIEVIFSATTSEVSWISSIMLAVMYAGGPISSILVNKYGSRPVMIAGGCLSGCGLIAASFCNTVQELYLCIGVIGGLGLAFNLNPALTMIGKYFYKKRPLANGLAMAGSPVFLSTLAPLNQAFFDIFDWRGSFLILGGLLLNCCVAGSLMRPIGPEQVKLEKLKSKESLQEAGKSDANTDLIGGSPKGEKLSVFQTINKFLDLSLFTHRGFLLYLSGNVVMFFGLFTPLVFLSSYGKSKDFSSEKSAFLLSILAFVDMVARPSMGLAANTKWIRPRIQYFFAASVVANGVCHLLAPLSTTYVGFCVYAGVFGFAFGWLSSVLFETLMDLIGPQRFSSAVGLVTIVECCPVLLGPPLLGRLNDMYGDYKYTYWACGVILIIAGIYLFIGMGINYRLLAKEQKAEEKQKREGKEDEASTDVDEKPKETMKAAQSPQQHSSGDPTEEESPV
T2 chain 2: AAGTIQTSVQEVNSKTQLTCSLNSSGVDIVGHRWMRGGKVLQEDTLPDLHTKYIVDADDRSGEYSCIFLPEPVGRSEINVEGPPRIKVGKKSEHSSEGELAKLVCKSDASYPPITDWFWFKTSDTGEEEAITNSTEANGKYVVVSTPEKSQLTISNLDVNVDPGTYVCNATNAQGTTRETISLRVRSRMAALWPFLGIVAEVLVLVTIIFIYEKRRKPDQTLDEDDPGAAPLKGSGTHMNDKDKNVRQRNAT


How the values were obtained:
Assay in all cases: BLI
hMCT1/hBSG [1] = target: T1, hMCT1/hBSG
hMCT1/hBSG [2] = target: T1, hMCT1/hBSG
WT mMCT1/mBSG complex = target: T2, WT mMCT1/mBSG complex

Kd (hMCT1/hBSG [1]) [nM]	koff (hMCT1/hBSG [2]) [s⁻¹]	Kd (WT mMCT1/mBSG complex) [nM]	Binder
4.41	0.000183	–	6E7F1 monoclonal antibody (antibody, V domains shown, Full-length hMCT1 with hBSG isoform 2 (limits not given; signal peptide 1-21 removed by convention); Ig-domain disulfides; N-glycosylated BSG if expressed in mammalian cells) VH: QVQLQQPGAELVKPGASVNLSCKASGYTFTNYWIHWVKQRPGQGLEWIGMIHPNSGTINYNEKFKTKATLTVDKSSSTAYMQLSSLTSEDSAVYYCARVGTGSLDYWGQGTSVTVSS VL: DIVMTQSPATLSVTPGDRVSLSCRASQSISDYLHWYQQKSHESPRLLIKYVSQSISGIPSRFSGSGSGSYFTLSIDSVEPEDVGVYYCQNGHRFPYTFGGGTKLEIK
–	–	0.421	6E7F1 monoclonal antibody (antibody, V domains shown) VH: QVQLQQPGAELVKPGASVNLSCKASGYTFTNYWIHWVKQRPGQGLEWIGMIHPNSGTINYNEKFKTKATLTVDKSSSTAYMQLSSLTSEDSAVYYCARVGTGSLDYWGQGTSVTVSS VL: DIVMTQSPATLSVTPGDRVSLSCRASQSISDYLHWYQQKSHESPRLLIKYVSQSISGIPSRFSGSGSGSYFTLSIDSVEPEDVGVYYCQNGHRFPYTFGGGTKLEIK
